Publication doi:10.1101/498865 (2018)

Assays:
[1] = target: T1, Cam1 (fission yeast calmodulin), amino-terminally acetylated (S. pombe, UniProt P05933 1-150, amino-terminal (Nt) acetylation); test: FRET; second site (Kd2)
[2] = target: T1, Cam1 (fission yeast calmodulin), …; test: FRET; first site (Kd1; <0.1 uM)
[3] = target: T1, Cam1 (fission yeast calmodulin), …; test: FRET

T1 sequence (P05933 whole entry): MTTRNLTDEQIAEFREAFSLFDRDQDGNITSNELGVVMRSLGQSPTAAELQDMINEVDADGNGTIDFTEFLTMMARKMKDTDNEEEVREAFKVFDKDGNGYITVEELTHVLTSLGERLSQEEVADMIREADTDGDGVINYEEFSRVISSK

Kd [1] [nM]	Kd [2] [nM]	Kd [3] [nM]	Binder
540	90	–	CyPet-DTMATRIQRAWRSYVRRRDEAAACIQKLWNRNKVNMELERVRNEGTK-YPet (domain or fragment, not fully specified) [CyPet-Myo1^IQ12-S742D-YPet FRET reporter protein]
–	–	60	DTMATRIQRAWRSYVRRRSEA (domain or fragment) [CyPet-Myo1^IQ1-YPet FRET reporter protein]
–	40	–	DTMATRIQRAWRSYVRRRSEAAACIQKLWNRNKVNMELERVRNEGTK (domain or fragment) [CyPet-Myo1^IQ12-YPet FRET reporter protein]
